Source: patent US20070184522A1, “Cell death modulation via antagonists of Fasl and Fas activation” (University of Pittsburgh of the Commonwealth System of …, priority 2004, published 2007)

Legend:
Fas-Fc / FasL binding = target: T1, Fas-Fc / FasL binding (Mus musculus, UniProt P25446); assay: Competition pull down with Fas-Fc, recombinant AlphaMet and recombinant FasL
T1 construct: purchased R&D
T1 sequence (P25446 22-169 limits assumed): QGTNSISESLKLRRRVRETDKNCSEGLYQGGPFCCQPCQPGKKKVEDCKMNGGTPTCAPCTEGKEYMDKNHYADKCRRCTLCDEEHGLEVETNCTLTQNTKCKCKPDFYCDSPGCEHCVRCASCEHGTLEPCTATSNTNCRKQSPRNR
Description: This antibody also recognizes Fas-Fc which is also tagged at the C-terminus by His. In FIG. 2b, a fixed amount of purified recombinant Fas-ligand was added to Fas-Fc in the absence or presence of increasing amounts of AlphaMet as indicated. Samples were subjected to pull down using proteinA agarose followed by Western blot using a polyclonal rabbit anti-FasL antibody. […] Fas ligand (1 μg/ml) was coated in the wells of a microtiter plate (triplicate wells) then 1 μg/ml of Fas-Fc was added in the absence or presence of an increasing amount of the indicated polypeptide. A 13 mer YLGA polypeptide derived from FasL also was synthesized and used. The control peptide was a scrambled 13 mer. Anti human […] conjugates were used to detect the bound Fas-Fc. […] One-way ANOVA was carried out for determination of statistical significance. […] Cells (3×10^5) were plated in 24-well plates having Poly-L-Lysine pre-treated cover glass. 2 μg/ml of Fas ligand was added and the cells were incubated for 30 min on ice. Cells were then washed by PBS twice, and were subjected to immunostaining using anti-Fas ligand antibody and fluorescent microscopy. In Frame A, Fas ligand was not added, in B, only Fas ligand was added, in C-F, Fas ligand was added with different polypeptides as follows: AlphaMet, 12 mer YLGA, control peptide, and YLGA mutated AlphaMet, respectively. […]

[1] = target: T2, Fas-Fc (extracellular part of Fas) (Mus musculus, UniProt P25446); assay: Fas-Fc pull down assay with protein-A agarose; format: binding
T2 construct: purchased R&D
T2 sequence (P25446 22-169 limits assumed): T1 sequence (P25446 22-169 limits assumed)
Description: The Met alpha but not beta chain binds to Fas (FIG. 1a). Various regions of the mouse Met cDNA corresponding to the alpha chain or the extra-cellular portion of the Met beta chain were cloned into expression vectors (pCRT7 TOPO/AlphaMet or pCRT7 TOPO/beta chain) and subjected to in vitro transcription/translation by a rabbit reticolucyte lysate translation system. Empty vector was included in each experiment as a control. The expressed proteins were labeled with ^35S-Methionine. Pull down assays were performed using Fas-Fc, a chimeric molecule which lacks the interacellular cytoplasmic domain and protein-A agarose as described in Wang et al., 2002. FIG. 1b is a schematic presentation of the Met alpha chain and its mutant version used to map the region interacting with Fas. The C-terminus of each construct contains a hexa-Histidine tag for ease of detection. Start cordon ATG was added to the N-terminally truncated constructs. The YLGA (SEQ ID NO:1) motif mutation was prepared by PCR, in which YLGA (SEQ ID NO:1) was replaced by DHER (SEQ ID NO:24). […] In vitro translated ^35S-methionine labeled truncated/mutated AlphaMet proteins were pulled down with 2 μg of Fas-Fc or the same amount of IgG. Lane 1: 10% of AlphaMet input; Lane 2: AlphaMet with IgG control; Lanes 3 to 8: pull down of various truncated AlphaMet proteins; N-terminal 1-106 residues; C-terminal truncated, residues 1-210; alpha chain, residues 1-306; alpha chain with transmembrane domain, 1-338; N-terminally truncated alpha chain, residues 100-306; and N-terminally truncated with addition of the transmembrane domain 100-338, respectively. FIG. 1d depicts the amino acid sequence alignment of alpha chain with FasL, determined using the CLUSTALW, SIM+LALNVIEW, and ALIGN at ExPASy Proteomic Tools (available on the internet at us.expresly.org/tools). The numbers indicate the amino acid residues of the indicated protein. […] Recombinant His-tagged AlphaMet or its mutant version were expressed in E. coli, purified with chromatography, and subjected to Fas-Fc (lanes labeled Fas) or control IgG pull down experiments, and detected by Western blot using anti-His antibody that recognizes C-terminal His. This antibody also recognizes the Fas-Fc which is also tagged at the C-terminus by His. […] Purified recombinant AlphaMet protein (approximately 10 μg) was mixed with Hepa 1-6 cells or Jurkat cell lysates and subjected to immunoprecicitation using anti-Fas antibody or control IgG followed by Western blot using anti His-tag antibody as a probe. […] After washing the wells, anti-human […]-HRP conjugates (1:20,000) were added to detect the bound Fas-Fc using TMD dye and the OD value was determined at a wavelength of 450 nm. […]

FasL binding to Fas in pull down (Fas-Fc / FasL binding; fixed FasL, increasing amounts of AlphaMet): blocked the FasL binding to Fas
Fas binding in Fas-Fc pull down ([1]; in vitro translated 35S-labeled proteins, autoradiography, listed as Met alpha chain): bound specifically to the Fas molecule
Fas binding in Fas-Fc pull down ([1]; in vitro translated 35S-labeled proteins, autoradiography, listed as full length AlphaMet): bound Fas very efficiently
Fas binding in Fas-Fc pull down ([1]; recombinant His-tagged proteins expressed and purified in E. coli, Western blot anti-His): bound avidly
B1: alpha subunit of Met (AlphaMet), amino acid residues 1 to 306, His-tagged (receptor, mouse)
chain: MKAPTVLAPGILVLLLSLVQRSHGECKEALVKSEMNVNMKYQLPNFTAETPIQNVVLHGHHIYLGATNYIYVLNDKDLQKVSEFKTGPVLEHPDCLPCRDCSSKANSSGGVWKDNINMALLVDTYYDDQLISCGSVNRGTCQRHVLPPDNSADIQSEVHCMFSPEEESGQCPDCVVSALGAKVLLSEKDRFINFFVGNTINSSYPPGYSLHSISVRRLKETQDGFKFLTDQSYIDVLPEFLDSYPIKYIHAFESNHFIYFLTVQKETLDAQTFHTRIIRFCSVDSGLHSYMEMPLECILTEKRRKRHHHHHH
binding of AlphaMet to Fas in presence of FasL (Fas-Fc / FasL binding; increasing amounts of FasL): completely abrogated by increasing amounts of FasL
